Results published in patent US5736356A, “Transglutaminase originating from Crassostrea gigas” (Ajinomoto Co., Inc., priority 1994, dated 1998).
“Also recorded” adds a separate entry of the source. Where two headings read alike, the source gives them in different places. Residues, ends and D or L forms follow the SMILES beside them. No end group written: not given here. *: point of attachment. Cbz = O=C(OCc1ccccc1)*

Legend:
[1] = target: T1, purified transglutaminase originating from Crassostrea gigas (Magallana gigas, UniProt A0A8W8K4D7); type: biochemical; settings: final concentration 1 mM; for Residual Activity: treated at 25° C. for 10 minutes, reaction 37° C. 30 minutes
T1 construct: Met-less mature form starts […]; recombinant enzyme from E. coli or yeast reported equivalent
Experimental: (§1) The activity of the transglutaminase is determined by reacting the enzyme with dimethylated casein and monodansylcadaverine as substrates and measuring an increase in the fluorescent intensity of casein due to the incorporation of monodansylcadaverine into the dimethylated casein. The composition of the reaction solution is as follows:
(§2) To 2.4 ml of the foregoing reaction solution, there is added 20 to 50 μl of the transglutaminase solution followed by carrying out the reaction at 37° C. for 30 min, terminating the reaction by addition of 100 μl of a 500 mM EDTA solution and then determining the fluorescent intensity of the reaction solution (using a device: RF-1500 available from Shimadzu Corporation; excitation wavelength: 350 nm; wavelength of emitted fluorescent rays: 480 nm). In respect of the unit of the activity, that required for increasing the fluorescent intensity by 1.0 within one minute is herein defined to be one unit.
The purified transglutaminase was treated at a temperature of 25° C. for 10 minutes while adding each of a variety of enzyme activity-inhibitory agents and each metal ion in such an amount that the final concentration thereof was equal to 1 mM and then the reaction was carried out at a temperature of 37° C. for 30 minutes using dimethylated casein and monodansylcadaverine as substrates.

[2] = target: T1, purified transglutaminase originating from Crassostrea gigas; type: biochemical; settings: synthetic substrate and hydroxylamine
Source text: The inventors have investigated the enzyme activity of the purified transglutaminase using a variety of synthetic substrates and hydroxylamine.

dimethylated casein [3] = target: dimethylated casein
dimethylated casein [4] = target: dimethylated casein; remark: listed apart in the source
casein = experiment: Control of gelation of casein solution by NaCl and CaCl2; type: biochemical; set-up: key to degree of gelation: -: the solution was still in the solution state; ±: the solution was a high viscosity product; +: the solution was a gelated product
Experimental: To an aqueous solution of casein (available from Sigma Company) having a protein concentration of 1% by weight, there was added NaCl in such an amount that the concentration thereof was 0, 0.1 or 0.3M, while variously changing the calcium chloride concentration within the range of from 0 to 200 mM to thus investigate the gelation of the protein. In this connection, the purified transglutaminase was added in an amount corresponding to 4.0 units per 1 mg of the protein. After carrying out the reaction at 37° C. for 90 minutes, the degree of gelation was evaluated.

[5] = tested on: dimethylated casein and monodansylcadaverine; experiment: Effect of NaCl and Ca2+ on enzyme activity; type: biochemical; settings: for effect of NaCl concentration on enzyme activity (in words): increasing NaCl concentration
[6] = tested on: dimethylated casein and monodansylcadaverine; experiment: Transglutaminase activity of purification fractions (monodansylcadaverine incorporation into dimethylated casein, fluorescence); type: biochemical
Experimental: as §1, §2
Thus, the purified transglutaminase originating from Crassostrea gigas was obtained.

With `[Ni+2]` [Ni^2+] the “Residual Activity” value [1] was 67.9%.

For `[Co+2]` [Co^2+], the “enzyme activity-inhibitory effect (in words)” value [1] was “strongly inhibited the enzyme activity” and the “Residual Activity” value [1] was 54.3%.

In the case of `NC(=O)CC[C@H](NC(=O)OCc1ccccc1)C(=O)NCC(=O)O` [CBZ-Gln-Gly, benzyloxycarbonyl glutaminyl glycine] (Cbz-Gln-Gly-OH), the “enzyme activity with synthetic substrate (in words)” value [2] is reported as “catalyzed the reaction” and the “enzyme activity with synthetic substrate (in words)” value ([2]; listed as benzyloxycarbonyl glutaminyl glycine) is reported as “showed the enzyme activity”.

In the case of `[Mg+2]` [Mg^2+], the “enzyme activity-inhibitory effect (in words)” value [1] is reported as “almost no enzyme activity-inhibitory effect” and the “Residual Activity” value [1] is reported as 98.2%.

For `O=S(=O)(F)Cc1ccccc1` [Phenylmethylsulfone Fluoride], the “enzyme activity-inhibitory effect (in words)” value [1] was “almost no enzyme activity-inhibitory effect” and the “Residual Activity” value [1] was 96.4%.

In the case of glycyl glutamyl glycine [Gly-Gln-Gly], the “enzyme activity with synthetic substrate (in words)” value [2] is reported as “did not catalyze the reaction” and the “enzyme activity with synthetic substrate (in words)” value ([2]; listed as glycyl glutamyl glycine) is reported as “did not show any enzyme activity”.

`NC(=O)C[C@H](NC(=O)OCc1ccccc1)C(=O)NCC(=O)O` [CBZ-Asn-Gly, benzyloxycarbonyl asparaginyl glycine] (Cbz-Asn-Gly-OH) was tested, and the “enzyme activity with synthetic substrate (in words)” value [2] was “did not catalyze the reaction” and the “enzyme activity with synthetic substrate (in words)” value ([2]; listed as benzyloxycarbonyl asparaginyl glycine) was “did not show any enzyme activity”.

With `[Cu+2]` [Cu^2+] the “enzyme activity-inhibitory effect (in words)” value [1] was “strongly inhibited the enzyme activity; also recorded: extremely high; also recorded: inhibited” and the “Residual Activity” value [1] was 8.8%.

In the case of `O=C(O)c1cc[c]([Hg][Cl])cc1` [p-Chloromercuribenzoic Acid], the “enzyme activity-inhibitory effect (in words)” value [1] is reported as “high enzyme activity-inhibitory effect; also recorded: inhibited” and the “Residual Activity” value [1] is reported as 10.5%.

With `[Zn+2]` [Zn^2+] the “Residual Activity” value [1] was 65.0%.

With `CCOC(=O)CNC(=O)[C@H](CCC(N)=O)NC(=O)OCc1ccccc1` [CBZ-Gln-Gly-OEt] (Cbz-Gln-Gly-OEt) the “enzyme activity with synthetic substrate (in words)” value [2] was “catalyzed the reaction”.

“fusion protein of β-galactosidase and the TGase of Crassostrea gigas expressed by plasmid pCGTG4E (enzyme)” gave an Increase in Fluorescent Intensity/Cultivation Temp. (increase in fluorescent intensity) (dimethylated casein [3]) of 12.8.

For `[Ba+2]` [Ba^2+], the “enzyme activity-inhibitory effect (in words)” value [1] was “almost no enzyme activity-inhibitory effect” and the “Residual Activity” value [1] was 102%.

In the case of `[Sr+2]` [Sr^2+], the “enzyme activity-inhibitory effect (in words)” value [1] is reported as “almost no enzyme activity-inhibitory effect” and the “Residual Activity” value [1] is reported as 93.8%.

In the case of “CBZ-Gly- Gly-Gln-Gly: synthetic substrate, SEQ ID NO: 143 (Cbz-GGQG)”, the “enzyme activity with synthetic substrate (in words)” value [2] is reported as “catalyzed the reaction”.

`O=C(O)CI` [Monoiodoacetic Acid] was tested, and the “enzyme activity-inhibitory effect (in words)” value [1] was “high enzyme activity-inhibitory effect” and the “enzyme activity-inhibitory effect (in words)” value ([1]; listed as momoiodo acetic acid) was “inhibited”.

With `NC(=O)CC[C@H](NC(=O)OCc1ccccc1)C(=O)O` [CBZ-Gln, benzyloxycarbonyl glutamine] the “enzyme activity with synthetic substrate (in words)” value [2] was “did not catalyze the reaction” and the “enzyme activity with synthetic substrate (in words)” value ([2]; listed as benzyloxycarbonyl glutamine) was “did not show any enzyme activity”.

“TGase originated from Cavia porcellus (available from Takara Co., Ltd.) (from UniProt P08587) (enzyme)” was tested, and the Increase in Fluorescent Intensity/Cultivation Temp. (increase in fluorescent intensity) (dimethylated casein [3]) was 4.3.

For “CBZ-Gln-Gln-Gly: synthetic substrate (Cbz-Gln-Gln-Gly)”, the “enzyme activity with synthetic substrate (in words)” value [2] was “catalyzed the reaction”.

For `[Pb+2]` [Pb^2+], the “enzyme activity-inhibitory effect (in words)” value [1] was “strongly inhibited the enzyme activity” and the “Residual Activity” value [1] was 55.5%.

“transglutaminase originating from Crassostrea gigas (purified from natural Crassostrea gigas) (enzyme)” was tested, and the Specific Activity (unit/mg): incorporation of monodansylcadaverine into dimethylated casein, fluorescence (dimethylated casein [4]) was 1400 unit/mg.

With `[Mn+2]` [Mn^2+] the “Residual Activity” value [1] was 84.7%.

For `CCN1C(=O)C=CC1=O` [N-Ethylmaleimide], the “enzyme activity-inhibitory effect (in words)” value [1] was “high enzyme activity-inhibitory effect; also recorded: inhibited”.

B1: purified transglutaminase: transglutaminase isolated and purified from Crassostrea gigas (Japanese oyster); Mono-Q active fraction (protein)
chain: AFWGVFYTIYSGIRRIAGQPPEEDTSDKEQKRSRTKKALGSEEEEGRISSLSDEDLRARNKVLEPKDEPSATLNVSSVDCQTKLNRKNHHTNEFEKAGNIYRRGQAFVIRVEFDREVNSDHDVILLQFTYGSRPQESKGTVIRIPLDLKPTTKTSDVTETWFAEVKNIAGKGLECAITSAPDSSIGEYRFYIETNLKDTDAVKRYEENESMIILFNAWAKEDTVYMDKEGERGEYVLNETGRVWTSRTWYGRPWNFGQFDDPVLDVALQLLLEGGLSDVACTSPVSVIRCLSSLCNSCDNNGVLAGRWTKEYPKDCTVPWKWTGSVAIIKEYHTNGNKPVRYGQCWVFSGLLTTMCRCLGIPTRSVTNFDSAHDTDSSMTIDSHWDEDGEPLEDMNDSVWNFHVWNESWFRRLDLPEGYDGWQAHDATPQEASEGIMRCGPAPLTAIKEGHVYLNFDIPFVFGEVNGDRVQWVVKKDGTMEVSQIDHSAVGHYISTKRMGSNDREDVTNLYKYPDGSEQERRVAKFVNRYSTRRKQNIYKLDTTKVLKFTVSPPDNTLIGDDMEIKVAVKNTADGPLKLHLTVSLVNAYYTGVAGSRVKTQTFEETIKAKDEKIVTMPVKGTEYHDGMNPEGRFQLYISGKNIDSGSMESTQISFVLKKPQLVIQVPQTIEAKEETEATIVFKNTTQLVLTQAEIAVEGSGLLAPQTIDISSPIKPGDEVKKTVVLRPRKPYYWGRELIATFTSKQIVDIETSADIKVIRQNKDNDSDSD
B1 was tested, and the degree of gelation (casein; NaCl 0 M, CaCl2 0 mM, 1% casein, 4.0 units/mg, 37° C. 90 min) was “-”, the degree of gelation (casein; NaCl 0 M, CaCl2 10 mM) was “-” and the degree of gelation (casein; NaCl 0 M, CaCl2 25 mM) was “-”. The degree of gelation (casein; NaCl 0 M, CaCl2 50 mM) was “±”, the degree of gelation (casein; NaCl 0 M, CaCl2 100 mM) was “+” and the degree of gelation (casein; NaCl 0 M, CaCl2 200 mM) was “+”. For the same molecule, the degree of gelation (casein; NaCl 0.1 M, CaCl2 0 mM) was “-”, the degree of gelation (casein; NaCl 0.1 M, CaCl2 10 mM) was “-” and the degree of gelation (casein; NaCl 0.1 M, CaCl2 25 mM) was “±”. The degree of gelation (casein; NaCl 0.1 M, CaCl2 50 mM) was “+”, the degree of gelation (casein; NaCl 0.1 M, CaCl2 100 mM) was “+” and the degree of gelation (casein; NaCl 0.1 M, CaCl2 200 mM) was “±”. For the same molecule, the “Ca2+ concentration at which the casein solution underwent gelation” value (casein; NaCl 0.3M) was “not less than 25 mM”, the degree of gelation (casein; NaCl 0.3 M, CaCl2 0 mM) was “-” and the degree of gelation (casein; NaCl 0.3 M, CaCl2 10 mM) was “±”. The degree of gelation (casein; NaCl 0.3 M, CaCl2 25 mM) was “+”, the degree of gelation (casein; NaCl 0.3 M, CaCl2 50 mM) was “+” and the degree of gelation (casein; NaCl 0.3 M, CaCl2 100 mM) was “+”. For the same molecule, the degree of gelation (casein; NaCl 0.3 M, CaCl2 200 mM) was “+”, the “Ca2+ concentration at which the casein solution underwent gelation” value (casein; free of NaCl) was “not less than 100 mM” and the “effect of addition of KCl on enzyme activity (in words)” value [5] was “improved”. For the same molecule, the “maximum activity in the presence of NaCl relative to that in the absence” value [5] was “about 2 times”, the “Ca2+ concentration at which the activity reached the highest level” value ([5]; in the absence of NaCl) was “about 100 mM” and the “Ca2+ concentration at which the activity reached the highest level” value ([5]; in the presence of NaCl (0.5M)) was “about 10 mM”. The “effect of NaCl concentration on enzyme activity (in words)” value [5] was “increased as the NaCl concentration increased”, the specific activity ([6]; Mono-Q active fraction) was 1404 units/mg protein and the total activity ([6]; Mono-Q active fraction) was 358 units. For the same molecule, the “specific activity” value ([6]; purification step, Table 1) was 1404 unit/mg, the “total activity” value ([6]; purification step, Table 1) was 368 unit and the “specific activity relative to that of the crude extract” value ([6]; purified solution vs crude extract) was “about 250 times”.

B2: transglutaminase originating from a microorganism: TGase originating from a microorganism; probably the Streptoverticillium calcium-independent BTG (protein, UniProt P81453 77-407, looked up)
Protein-glutamine …: DSDDRVTPPAEPLDRMPDPYRPSYGRAETVVNNYIRKWQQVYSHRDGRKQQMTEEQREWLSYGCVGVTWVNSGQYPTNRLAFASFDEDRFKNELKNGRPRSGETRAEFEGRVAKESFDEEKGFQRAREVASVMNRALENAHDESAYLDNLKKELANGNDALRNEDARSPFYSALRNTPSFKERNGGNHDPSRMKAVIYSKHFWSGQDRSSSADKRKYGDPDAFRPAPGTGLVDMSRDRNIPRSPTSPGEGFVNFDYGWFGAQTEADADKTVWTHGNHYHAPNGSLGAMHVYESKFRNWSEGYSDFDRGAYVITFIPKSWNTAPDKVKQGWP
In the case of B2, the “effect of NaCl concentration on enzyme activity (in words)” value [5] is reported as “did not show any increase”.
